From PMC4673316

Biological target: ClpP1/P2 heptameric ring 3ClpP1 + 4ClpP2 (Synechococcus elongatus) (UniProt P54415)
Assay: native MS; nano-ESI Q-ToF, 200 mM ammonium acetate with 2 mM TEA (weakly denaturing)

“ClpP1/P2 heptameric ring 3ClpP1 + 4ClpP2 (from UniProt P54415 1-197; O34125 1-240) (complex)” was tested, and the stoichiometry N was 2.
